To fix the notation:
B1: TPR 5TU (parent)
chain: GGAUCUUCUCGAUCUAACAAAAAAGACAAAUCUGCCACAAAGCUUGAGAGCAUCUUCGGAUGCAGAGGCGGCAGCCUUCGGUGGCGCGAUAGCGCCAACGUUCUCAACUAUGACACGCAAAACGCGUGCUCCGUUGAAUGGAGUUUAUCAUG

Fewer inactive variants are shown than the library holds. Some results are limits rather than exact numbers.

In the data set the parent is B1. The data set can be described thus: polymerase ribozyme fitness, log enrichment relative to wild type (log ratio); higher = more active; in vitro selection for triplet polymerase activity. The essentials: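 PCR was used to build mutant libraries for each subunit of a heterodimeric triplet polymerase ribozyme, which were then transcribed. A single in vitro selection round, in triplicate, used a frozen incubation at −7 °C and recovered extended constructs by gel excision, streptavidin beads and RT-PCR. Fitness is the logarithm of genotype enrichment relative to wild-type enrichment, averaged over replicates with inverse-variance weights. The logarithm is base 2, and after Illumina sequencing only genotypes with ≥10 input reads and ≥1 read per output were kept.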
In the case of G11A A12U C51G U55G G62C U90C C108G, the “polymerase ribozyme fitness (log ratio)” value was not above -4.2.

For the variant C10A U53A C85A C96G G100A U127C U146A, the “polymerase ribozyme fitness (log ratio)” value is not above -4.2.

For the variant G11A A21U G83U G117U, the “polymerase ribozyme fitness (log ratio)” value is -2.13.

For the variant C10G C69G, the “polymerase ribozyme fitness (log ratio)” value is -4.16.

In the case of G11A U55A A73G, the “polymerase ribozyme fitness (log ratio)” value is -1.2.

For the variant G11U U61A C87U, the “polymerase ribozyme fitness (log ratio)” value was -3.78.

Turning to A12G C27A U31G C35G C85A A97C C99G C149A, the “polymerase ribozyme fitness (log ratio)” value is not above -4.2.

With C10U C93U, the “polymerase ribozyme fitness (log ratio)” value was -4.06.

For the variant A12C A21G C36A G48A C93A U135G, the “polymerase ribozyme fitness (log ratio)” value was not above -4.2.

As to C10G A52G U56A C96U G140U, the “polymerase ribozyme fitness (log ratio)” value is not above -4.2.

On to G11A C85A, for which the “polymerase ribozyme fitness (log ratio)” value was -2.76.

In the case of G11A C85U, the “polymerase ribozyme fitness (log ratio)” value is -1.56.

For C10G A73G G92U, the “polymerase ribozyme fitness (log ratio)” value is not above -4.2.

On to G11A G94U A150U, for which the “polymerase ribozyme fitness (log ratio)” value was -0.735.

A12G U33C A73G U130G: the “polymerase ribozyme fitness (log ratio)” value is -3.56.

On to A12G C27A C76A A147C U148A, for which the “polymerase ribozyme fitness (log ratio)” value is not above -4.2.

For A12C A24U A37G A52C C75U C93U, the “polymerase ribozyme fitness (log ratio)” value was not above -4.2.

As to C10G U144C, the “polymerase ribozyme fitness (log ratio)” value is -3.87.

Regarding G11C A17G C32A C72U A113U G117U A122U U148G, the “polymerase ribozyme fitness (log ratio)” value was not above -4.2.

G11C C38A G59A C125G: the “polymerase ribozyme fitness (log ratio)” value was -2.58.

As to C10G A52U C72U G86U C93U C116G G124A U144C, the “polymerase ribozyme fitness (log ratio)” value is not above -4.2.

On to C10U C105A, for which the “polymerase ribozyme fitness (log ratio)” value is -3.59.

With A12G A40G U44A U45A C93G A120U G141U, the “polymerase ribozyme fitness (log ratio)” value is not above -4.2.

As for C10G A12U A22G C35G G94A C95U C99A U111C, the “polymerase ribozyme fitness (log ratio)” value is not above -4.2.

As for G11A C14A A40G C79A C93A G124A, the “polymerase ribozyme fitness (log ratio)” value is not above -4.2.

With A12G G70C A113C U144C A147C, the “polymerase ribozyme fitness (log ratio)” value is not above -4.2.

With G11A A30C C99A C118U U145G, the “polymerase ribozyme fitness (log ratio)” value is not above -4.2.

For G11U G50U G68A G84U C114U A115U G136A, the “polymerase ribozyme fitness (log ratio)” value is not above -4.2.

For G11C C63U G83A A115U U135A U146C G152U, the “polymerase ribozyme fitness (log ratio)” value was not above -4.2.

Consider A12G C18U G83U A89G C96U, for which the “polymerase ribozyme fitness (log ratio)” value was -1.73.

Take C10A U15G G58A G86U A98G A138U: the “polymerase ribozyme fitness (log ratio)” value was not above -4.2.

A12C U13C A26C C27G G70A C96G: the “polymerase ribozyme fitness (log ratio)” value was not above -4.2.

With A12G C27U G46U C57A C85G A122C, the “polymerase ribozyme fitness (log ratio)” value is -3.63.

With A12C C27U C35U A52C C75A A115C, the “polymerase ribozyme fitness (log ratio)” value is not above -4.2.

With G11U A16U A52C G58C G65A C79A G83U C93U C118A, the “polymerase ribozyme fitness (log ratio)” value is not above -4.2.

With A12G G59A A73G A91G, the “polymerase ribozyme fitness (log ratio)” value is -2.71.

For the variant G11C C85U A119G, the “polymerase ribozyme fitness (log ratio)” value is -2.02.

Regarding C10U G25U C32A C76A G83U G88C C93G, the “polymerase ribozyme fitness (log ratio)” value is not above -4.2.

On to A12G C63U G83C C95U U109A, for which the “polymerase ribozyme fitness (log ratio)” value is -2.16.

On to G11A A49G A60U, for which the “polymerase ribozyme fitness (log ratio)” value is -2.63.

On to C10G A89G, for which the “polymerase ribozyme fitness (log ratio)” value was not above -4.2.

For the variant C10U U15G A23U C43U U82C G92U U104C, the “polymerase ribozyme fitness (log ratio)” value is not above -4.2.

As for A12G C14A C38U C43A U56A C85U C103G, the “polymerase ribozyme fitness (log ratio)” value was not above -4.2.

As to A12C U90G, the “polymerase ribozyme fitness (log ratio)” value was not above -4.2.

For C10G A37C G50A C95U C99A G143C, the “polymerase ribozyme fitness (log ratio)” value was not above -4.2.

Turning to A12G C54U G86U C105U G143A, the “polymerase ribozyme fitness (log ratio)” value is -2.5.

A12C U90G A107G A138G: the “polymerase ribozyme fitness (log ratio)” value is not above -4.2.

For A12G C93G, the “polymerase ribozyme fitness (log ratio)” value was -2.99.

Turning to C10G C54U U55A C79G C93U A98G C116G A122U, the “polymerase ribozyme fitness (log ratio)” value is not above -4.2.

C10G A30G C38A G94U C125G U144C: the “polymerase ribozyme fitness (log ratio)” value was not above -4.2.

With A12C A52G G68U A98U, the “polymerase ribozyme fitness (log ratio)” value was -4.19.

For A12G C35U U55G C87G A115U, the “polymerase ribozyme fitness (log ratio)” value was -4.17.

On to G11U C38A A40C U53A G58A, for which the “polymerase ribozyme fitness (log ratio)” value is -3.76.

Regarding C10G G84A, the “polymerase ribozyme fitness (log ratio)” value was -3.26.

Turning to C10G U56A A89U C99U G112C U145G, the “polymerase ribozyme fitness (log ratio)” value is not above -4.2.

As to G11C A23U G48C C79A U82G G94U A142U, the “polymerase ribozyme fitness (log ratio)” value is not above -4.2.

As to A12G C85G, the “polymerase ribozyme fitness (log ratio)” value was -1.96.

Consider A12G C85U, for which the “polymerase ribozyme fitness (log ratio)” value is 0.000103.

As to G11C C57G U82A G83U G141U, the “polymerase ribozyme fitness (log ratio)” value is -2.65.

Take C10G C95U: the “polymerase ribozyme fitness (log ratio)” value is -3.16.

For C10U U78A G86A A107G G124A G140A G141C, the “polymerase ribozyme fitness (log ratio)” value is not above -4.2.

On to G11U A16C A24G G58C C87A C99U, for which the “polymerase ribozyme fitness (log ratio)” value is not above -4.2.

With A12C A24G A52C A60C, the “polymerase ribozyme fitness (log ratio)” value is not above -4.2.

In the case of A12G C72U G88U A120U G141U, the “polymerase ribozyme fitness (log ratio)” value is not above -4.2.

On to C10G A26C C76A G83A, for which the “polymerase ribozyme fitness (log ratio)” value was not above -4.2.

On to A12G A21C A23G C76G C116G G133A, for which the “polymerase ribozyme fitness (log ratio)” value was not above -4.2.

Regarding A12C G25U U55A U56C G83C, the “polymerase ribozyme fitness (log ratio)” value was not above -4.2.

For A12C C87A U130C, the “polymerase ribozyme fitness (log ratio)” value is not above -4.2.

C10G C18G U55C C57U U61A: the “polymerase ribozyme fitness (log ratio)” value was -4.15.

In the case of G11U A12G U15A G58C G94U U151G, the “polymerase ribozyme fitness (log ratio)” value was not above -4.2.

Take A12C A52C C54U C96A: the “polymerase ribozyme fitness (log ratio)” value is -3.95.

Take G11C A23U G50C C54G C57U A89G C116A G124C U139A: the “polymerase ribozyme fitness (log ratio)” value is not above -4.2.

In the case of G11U C14G A20G C27G A52U G80A A120U G141U U144G, the “polymerase ribozyme fitness (log ratio)” value is not above -4.2.

On to G11A G48A A52C G83A C87U A119C G124C, for which the “polymerase ribozyme fitness (log ratio)” value is not above -4.2.

C10G C14U A28U U53A A122C: the “polymerase ribozyme fitness (log ratio)” value was not above -4.2.

Take G11A A91G C114U U144C: the “polymerase ribozyme fitness (log ratio)” value is -4.14.

For G11A C96U, the “polymerase ribozyme fitness (log ratio)” value was -1.9.

Consider G11A C27U A49G C96A C118U U145A, for which the “polymerase ribozyme fitness (log ratio)” value was -4.19.

For the variant G11A G50C C93U A97U G141U, the “polymerase ribozyme fitness (log ratio)” value is not above -4.2.

As for C10G C93U, the “polymerase ribozyme fitness (log ratio)” value is -3.86.

As for A12G A16U G50A G83C C85A U90C, the “polymerase ribozyme fitness (log ratio)” value is not above -4.2.

On to C10A U13G G25C G34U U61A C63U G68C U77C C79A G86A, for which the “polymerase ribozyme fitness (log ratio)” value was not above -4.2.

Take C10G C32A G58U G59U U130C: the “polymerase ribozyme fitness (log ratio)” value is not above -4.2.

With C10U A28U G94A U127G, the “polymerase ribozyme fitness (log ratio)” value is -4.04.

The values are drawn from the RNAGym collection of RNA variant scans (doi:10.1073/pnas.2313332121).
